# Source: US20190024103
# What was measured:
# Assay in all cases: cell_activity
# Conditions in all cases: TALEN pair
# [1] = system: GmFAD3_T03 TALEN right monomer (synthetic)
# [2] = system: GmFAD3_T02 TALEN right monomer (synthetic)
# [3] = system: GmFAD3_T01 TALEN right monomer (synthetic)
# [4] = system: GmFAD3_T01 TALEN left monomer (synthetic)
# [5] = system: GmFAD3_T03 TALEN left monomer (synthetic)
# [6] = system: GmFAD3_T02 TALEN left monomer (synthetic)
# [7] = soybean protoplasts, text p95 gives 2.39
sequence,measurement,setting,value
ACAAAATCATGGACAC (double strand) [FAD3A_T03 right],activity,[1]; [7],4.4 % NHEJ
ACTCAATTCTTGTGCC (double strand) [FAD3A_T02 right],activity,[2]; soybean protoplasts,14.5 % NHEJ
AGGAAGCTTTTCAGAC (double strand) [FAD3A_T01 right],activity,[3]; soybean protoplasts,10.2 % NHEJ
ATGGTTAAAGACACAAAGCCTTTAGCCTATGCTGCCAATAATGGATACCAACAAAAGGGTTCTTCTTTTGATTTTGATCCTAGCGCTCCTCCACCGTTTAAGATTGCAGAAATCAGAGCTTCAATACCAAAACATTGCTGGGTCAAGAATCCATGGAGATCCCTCAGTTATGTTCTCAGGGATGTGCTTGTAATTGCTGCATTGGTGGCTGCAGCAATTCACTTCGACAACTGGCTTCTCTGGCTAATCTATTGCCCCATTCAAGGCACAATGTTCTGGGCTCTCTTTGTTCTTGGACATGATTGGTAATAATTTTTGTGTTTCTTACTCTTTTTTTTTTTTTTTTGTTTATGATATGAATCTCACACATTGTTCTGTTATGTCATTTCTTCTTCATTTGGCTTTAGACAACTTAAATTTGAGATCTTTATTATGTTTTTGCTTATATGGTAAAGTGATTCTTCATTATTTCATTCTTCATTGATTGAATTGAACAGTGGCCATGGAAGCTTTTCAGATAGCCCTTTGCTGAATAGCCTGGTGGGACACATCTTGCATTCCTCAATTCTTGTGCCATACCATGGATGGTTAGTTCATACTGGCTTTTTTGTTTGTTCATTTGTCATTGAAAAAAAATCTTTTGTTGATTCAATTATTTTTATAGTGTGTTTGGAAGCCCGTTTGAGAAAATAAGAAATCGCATCTGGAATGTGAAAGTTATAACTATTTAGCTTCATCTGTCGTTGCAAGTTCTTTTATTGGTTAAATTTTTATAGCGTGCTAGGAAACCCATTCGAGAAAATAAGAAATCACATCTGGAATGTGAAAGTTATAACTGTTAGCTTCTGAGTAAACGTGGAAAAACCACATTTTGGATTTGGAACCAAATTTTATTTGATAAATGACAACCAAATTGATTTTGATGGATTTTGCAGGAGAATTAGCCACAGAACTCACCATCAAAACCATGGACACATTGAGAAGGATGAGTCATGGGTTCCA (double strand) [FAD3B gene],activity,[3]; FAD3B off-target,1.48 % NHEJ
same,activity,[4]; FAD3B off-target,1.48 % NHEJ
same,activity,[5]; FAD3B off-target,2.39 % NHEJ
same,activity,[1]; FAD3B off-target,2.39 % NHEJ
ATGGTTCAAGCACAGCCTCTACAACATGTTGGTAATGGTGCAGGGAAAGAAGATCAAGCTTATTTTGATCCAAGTGCTCCACCACCCTTCAAGATTGCAAATATCAGAGCAGCAATTCCAAAACATTGCTGGGAGAAGAACACATTGAGATCTCTGAGTTATGTTCTGAGGGATGTGTTGGTAGTGACTGCATTGGTAGCTGCAGCAATCGGCTTCAATAGCTGGTTCTTCTGGCCACTCTATTGGCCTGCACAAGGCACAATGTTTTGGGCACTTTTTGTTCTTGGACATGATTGGTAACTAATTATTATTACAAATTGTTATGTTATGTTATGTTATGTTGTTGTGCCTTTTTCTCAGTGATGCTTTAGTCATTTCATTTCACTTGGTTATGCATGATTGTTCGTTCATATGTTCTGTCATGGTGAGTTCTAATTTGATTGATGCATGGAACAGTGGTCATGGAAGTTTTTCAAACAGTCCTTTGTTGAACAGCATTGTGGGCCACATCTTGCACTCTTCAATTCTTGTACCATACCATGGATGGTCGGTTCCTTTTAGCAACTTTTCATGTTCACTTTGTCCTTAAATTTTTTTTTATGTTTGTTAAAAAATCTTTGGTCTGATTTAACAACCTAACCATTTTTACAACTCATGGATTTTTTGCAGGAGAATTAGCCACAGGACTCACCATCAGAACCATGGCCATGTTGAGAAGGATGAATCATGGGTTCCG (double strand) [FAD3C gene],activity,[3]; FAD3C off-target,0.04 % NHEJ
same,activity,[4]; FAD3C off-target,0.04 % NHEJ
same,activity,[5]; FAD3C off-target,0.17 % NHEJ
same,activity,[6]; FAD3C off-target,0.01 % NHEJ
same,activity,[2]; FAD3C off-target,0.01 % NHEJ
same,activity,[1]; FAD3C off-target,0.17 % NHEJ
CCTCAATTCTTGTGCC (double strand) [FAD3B T02 right site],activity,[2]; FAD3B off-target,8.81 % NHEJ
CTAAATAGCCTGGTGT (double strand) [FAD3A_T02 left],activity,[6]; soybean protoplasts,14.5 % NHEJ
CTGAATAGCCTGGTGG (double strand) [FAD3B T02 left site],activity,[6]; FAD3B off-target,8.81 % NHEJ
TCATTCTTCACATTGT (double strand) [FAD3A_T01 left],activity,[4]; soybean protoplasts,10.2 % NHEJ
TTTGCAGGAGAATTAT (double strand) [FAD3A_T03 left],activity,[5]; [7],4.4 % NHEJ
